# According to the supplement of paper PMC11246515:
# ± gives the standard deviation of the averaged measurements.
# Experiment: total protein half-life in vivo (active degradation + dilution); higher = more stable protein
# [1] = E. coli NCM3722 delta-clpP delta-lon delta-hslV, growth: N-lim chemostat, doubling time 6 h
# [2] = E. coli NCM3722 delta-clpP, growth: N-lim chemostat, doubling time 6 h
# [3] = E. coli NCM3722 delta-hslV, growth: N-lim chemostat, doubling time 6 h
# [4] = E. coli NCM3722 delta-lon, growth: N-lim chemostat, doubling time 6 h
# [5] = E. coli NCM3722 delta-smpB, growth: N-lim chemostat, doubling time 6 h
# [6] = wild type E. coli NCM3722, growth: C-lim chemostat, doubling time 3 h
# [7] = wild type E. coli NCM3722, growth: C-lim chemostat, doubling time 6 h
# [8] = wild type E. coli NCM3722, growth: C-lim chemostat, doubling time 12 h
# [9] = wild type E. coli NCM3722, growth: N-lim chemostat, doubling time 6 h
# [10] = wild type E. coli NCM3722, growth: N-lim chemostat, doubling time 12 h
# [11] = wild type E. coli NCM3722, growth: P-lim chemostat, doubling time 6 h
# [12] = wild type E. coli NCM3722, growth: P-lim chemostat, doubling time 12 h
Sequence,total protein half-life in vivo [1] [h],total protein half-life in vivo [2] [h],total protein half-life in vivo [3] [h],total protein half-life in vivo [4] [h],total protein half-life in vivo [5] [h],total protein half-life in vivo [6] [h],total protein half-life in vivo [7] [h],total protein half-life in vivo [8] [h],total protein half-life in vivo [9] [h],total protein half-life in vivo [10] [h],total protein half-life in vivo [11] [h],total protein half-life in vivo [12] [h]
MKLIRGIHNLSQAPQEGCVLTIGNFDGVHRGHRALLQGLQEEGRKRNLPVMVMLFEPQPLELFATDKAPARLTRLREKLRYLAECGVDYVLCVRFDRRFAALTAQNFISDLLVKHLRVKFLAVGDDFRFGAGREGDFLLLQKAGMEYGFDITSTQTFCEGGVRISSTAVRQALADDNLALAESLLGHPFAISGRVVHGDELGRTIGFPTANVPLRRQVSPVKGVYAVEVLGLGEKPLPGVANIGTRPTVAGIRQQLEVHLLDVAMDLYGRHIQVVLRKKIRNEQRFASLDELKAQIARDELTAREFFGLTKPA [P0AG40],4.18 ± 0.72,5.21 ± 0.77,4.54 ± 0.2,5.2 ± 0.77,4.43 ± 0.14,3.15 ± 0.15,5.64 ± 0.3,10.5 ± 0.48,4.62 ± 0.35,7.426 ± 0.064,5.441 ± 0.05,11.83 ± 0.032
MSNILIINGAKKFAHSNGQLNDTLTEVADGTLRDLGHDVRIVRADSDYDVKAEVQNFLWADVVIWQMPGWWMGAPWTVKKYIDDVFTEGHGTLYASDGRTRKDPSKKYGSGGLVQGKKYMLSLTWNAPMEAFTEKDQFFHGVGVDGVYLPFHKANQFLGMEPLPTFIANDVIKMPDVPRYTEEYRKHLVEIFG [P0AEY5],,1.93 ± 0.14,1.94 ± 0.091,2.18 ± 0.044,2.27 ± 0.32,3.31 ± 0.43,4.76 ± 0.2,6.6 ± 0.75,2.12 ± 0.18,,,8.32 ± 0.26
MSVFSLKIDIADNKFFNGETSPLFSQSQAKLARQFHQKIAGYRPTPLCALDDLANLFGVKKILVKDESKRFGLNAFKMLGGAYAIAQLLCEKYHLDIETLSFEHLKNAIGEKMTFATTTDGNHGRGVAWAAQQLGQNAVIYMPKGSAQERVDAILNLGAECIVTDMNYDDTVRLTMQHAQQHGWEVVQDTAWEGYTKIPTWIMQGYATLADEAVEQMREMGVTPTHVLLQAGVGAMAGGVLGYLVDVYSPQNLHSIIVEPDKADCIYRSGVKGDIVNVGGDMATIMAGLACGEPNPLGWEILRNCATQFISCQDSVAALGMRVLGNPYGNDPRIISGESGAVGLGVLAAVHYHPQRQSLMEKLALNKDAVVLVISTEGDTDVKHYREVVWEGKHAVAP,,,,,,,4.2,,,,,
MSKKIVLALGGNALGDDLAGQMKAVKITSQAIVDLIAQGHEVIVTHGNGPQVGMINQAFEAAAKTEAHSPMLPMSVCVALSQGYIGYDLQNALREELLSRGINKPVATLVTQVEVDANDPAFLNPTKPIGSFFTEQEAEQLTKQGYTLKEDAGRGYRRVVASPKPVDIIEKETVKALVDAGQVVITVGGGGIPVIREGNHLRGASAVIDKDWASARLAEMIDADMLIILTAVEKVAINFGKENEQWLDRLSLSDAERFIEEGHFAKGSMLPKVEAAASFARSRAGREALITVLSKAKEGIEGKTGTVICQ,3.53,,> 8,,2.48,2.84 ± 0.39,3.92,6.22 ± 1.5,2.66,,3.03,5.27 ± 1.5
MIQKSKIKDLVVFTDENNSKYLNVLNDFLSYNINIIKVFRSIDDTKVMLIDTDYGKLILKVFSPKVKRNERFFKSLLKGDYYERLFEQTQKVRNEGLNTLNDFYLLAERKTLRFVHTYIMIIEYIDGIELCDMPDIDDALKNKIQQSINALHQHGMVSGDPHRGNFIIKNGEVRIIDLSGKRASAQRKAKDRIDLERHYGIKNEIRDLGYYLLVYRKKMRNFMRRLKGKPAR,,6.73 ± 0.18,5.7 ± 0.17,6.35 ± 0.15,6.04 ± 0.22,3.31 ± 0.043,5.885 ± 0.011,9.9 ± 1,5.86 ± 0.76,12.09 ± 0.019,5.84 ± 0.34,11.8 ± 0.82
MDAKQRIARRVAQELRDGDIVNLGIGLPTMVANYLPEGIHITLQSENGFLGLGPVTTAHPDLVNAGGQPCGVLPGAAMFDSAMSFALIRGGHIDACVLGGLQVDEEANLANWVVPGKMVPGMGGAMDLVTGSRKVIIAMEHCAKDGSAKILRRCTMPLTAQHAVHMLVTELAVFRFIDGKMWLTEIADGCDLATVRAKTEARFEVAADLNTQRGDL,,,,0.206,,,,,1.83,,,
MKNKADNKKRNFLTHSEIESLLKAANTGPHAARNYCLTLLCFIHGFRASEICRLRISDIDLKAKCIYIHRLKKGFSTTHPLLNKEVQALKNWLSIRTSYPHAESEWVFLSRKGNPLSRQQFYHIISTSGGNAGLSLEIHPHMLRHSCGFALANMGIDTRLIQDYLGHRNIRHTVWYTASNAGRFYGIWDRARGRQRHAVL [P0ADH5],5.33 ± 0.87,,,1.9,0.718 ± 0.15,,,,,0.988,,
MQYNPLGKTDLRVSRLCLGCMTFGEPDRGNHAWTLPEESSRPIIKRALEGGINFFDTANSYSDGSSEEIVGRALRDFARREDVVVATKVFHRVGDLPEGLSRAQILRSIDDSLRRLGMDYVDILQIHRWDYNTPIEETLEALNDVVKAGKARYIGASSMHASQFAQALELQKQHGWAQFVSMQDHYNLIYREEEREMLPLCYQEGVAVIPWSPLARGRLTRPWGETTARLVSDEVGKNLYKESDENDAQIAERLTGVSEELGATRAQVALAWLLSKPGIAAPIIGTSREEQLDELLNAVDITLKPEQIAELETPYKPHPVVGFK,4.533 ± 0.045,4.47 ± 0.65,4.55 ± 0.91,5 ± 0.2,3.79 ± 0.081,2.81 ± 0.13,5.04 ± 0.076,9.04 ± 0.38,4.21 ± 0.2,6.51 ± 0.4,4.28 ± 0.23,8.83 ± 0.12
